Experiment [1] addresses T1, hTSLP1-m-His (human (homo sapiens), UniProt Q969D9 29-159).
T1 construct: Long version of the human TSLP extracellular region, furin site deleted, His tag at the C-terminus, made in HEK293; also called hTSLP-m-his; not shown: C-terminal His tag
Nature of the experiment: SPR (Biacore X100), antibody captured by anti-human IgG (Fc) on CM5, hTSLP1-m-his as analyte, 25 C, 1:1 fit. A general note: SPR reads the build-up and loss of mass on a sensor chip optically.

For experiment [2], the target named is T1, hTSLP1-m-His. In words: SPR (Biacore X100) as in Example 3.1, antibody captured, hTSLP as analyte.
The target of experiment [3] is T2, mfTSLP (cynomolgus monkey (Macaca fascicularis)).
T2 construct: also called 猴TSLP; 食蟹猴TSLP
T2 chain: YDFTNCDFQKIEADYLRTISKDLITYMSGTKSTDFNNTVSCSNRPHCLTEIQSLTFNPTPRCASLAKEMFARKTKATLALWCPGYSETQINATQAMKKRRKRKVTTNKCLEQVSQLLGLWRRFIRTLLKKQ
In words: SPR (Biacore X100) as in Example 3.1, antibody captured, mfTSLP as analyte.

For experiment [4], the target named is T3, hTSLP1-m-mFc (human (homo sapiens)); mouse (mus …, limits assumed).
T3 construct: also called 人TSLP
T3 chain: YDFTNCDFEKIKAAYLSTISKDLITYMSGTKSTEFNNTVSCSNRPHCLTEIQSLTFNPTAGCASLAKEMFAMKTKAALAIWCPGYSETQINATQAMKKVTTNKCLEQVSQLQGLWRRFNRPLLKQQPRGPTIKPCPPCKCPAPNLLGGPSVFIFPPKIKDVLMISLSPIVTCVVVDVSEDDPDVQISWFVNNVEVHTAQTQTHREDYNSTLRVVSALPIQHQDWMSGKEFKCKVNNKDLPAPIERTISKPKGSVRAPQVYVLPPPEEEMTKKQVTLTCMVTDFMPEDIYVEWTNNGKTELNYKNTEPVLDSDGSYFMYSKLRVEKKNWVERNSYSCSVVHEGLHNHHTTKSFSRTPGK
In words: ELISA on coated hTSLP1-m-mFc (1 μg/mL), HRP anti-human IgG. (ELISA stands for enzyme-linked immunosorbent assay.)

Experiment [5] concerns the target T4, mTSLP-mFc (mouse (mus musculus)).
T4 construct: also called 小鼠TSLP
T4 chain: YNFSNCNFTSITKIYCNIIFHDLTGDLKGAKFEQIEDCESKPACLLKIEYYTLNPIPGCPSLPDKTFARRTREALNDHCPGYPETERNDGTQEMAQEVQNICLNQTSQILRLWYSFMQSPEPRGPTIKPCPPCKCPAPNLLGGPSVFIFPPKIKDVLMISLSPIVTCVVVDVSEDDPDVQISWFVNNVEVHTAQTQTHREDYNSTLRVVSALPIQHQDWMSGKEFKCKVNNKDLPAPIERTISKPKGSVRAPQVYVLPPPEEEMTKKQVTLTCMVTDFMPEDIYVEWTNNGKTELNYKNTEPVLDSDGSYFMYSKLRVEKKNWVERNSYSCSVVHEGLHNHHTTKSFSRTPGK
In words: ELISA on coated mTSLP-mFc (1 μg/mL), HRP anti-human IgG.

In experiment [6] the target is T5, mfTSLP1-m-mFc (cynomolgus monkey (Macaca …)).
T5 construct: also called 食蟹猴TSLP
T5 chain: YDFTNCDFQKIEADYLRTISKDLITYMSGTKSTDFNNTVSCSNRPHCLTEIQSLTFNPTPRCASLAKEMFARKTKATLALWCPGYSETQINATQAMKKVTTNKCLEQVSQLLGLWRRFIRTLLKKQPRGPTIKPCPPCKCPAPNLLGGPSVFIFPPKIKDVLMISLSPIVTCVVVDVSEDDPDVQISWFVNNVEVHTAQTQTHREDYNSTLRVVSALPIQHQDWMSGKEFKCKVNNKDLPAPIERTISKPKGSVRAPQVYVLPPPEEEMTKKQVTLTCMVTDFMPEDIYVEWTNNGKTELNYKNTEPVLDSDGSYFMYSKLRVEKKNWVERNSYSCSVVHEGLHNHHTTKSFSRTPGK
Nature of the experiment: ELISA on coated mfTSLP1-m-mFc (1 μg/mL), HRP anti-human IgG.

Experiment [7] addresses T1, hTSLP1-m-His. Nature of the experiment: competition ELISA on coated hTSLP1-m-his; competitor Tezepelumab-mIgG2a; HRP anti-human IgG.

Where a chain is given by its changes, count along the chain named.

B1: S2B1-IgG4 (antibody, V domains shown)
VH: EVKLQQSGAELVRPGSSVKISCKASGYAFSNYWMNWVKQRPGQGLEWIGQIFPGDGDTDYNGKFKGKATLTADKSSSTAYMQLSSLTSEDSAVYFCARAGYYRGYYAMDYWGQGTSVTVSA
VL: EIVLTQSPALMAASPGEKVTITCSVSSSISSSNLHWYQQKSETSPKPWIYGTSNLASGVPVRFSGSGSGTSYSLTISSMEAEDAATYYCQQWSSYPLTFGAGTKLEIK
In general, Kd refers to the concentration at which binding is half-saturated. Regarding B1, the Kd in experiment [1] worked out at 9.2 pM; in experiment [2], 0.012 nM.

B2: Tezepelumab (antibody, V domains shown)
VH: QMQLVESGGGVVQPGRSLRLSCAASGFTFRTYGMHWVRQAPGKGLEWVAVIWYDGSNKHYADSVKGRFTITRDNSKNTLNLQMNSLRAEDTAVYYCARAPQWELVHEAFDIWGQGTMVTVSS
VL: SYVLTQPPSVSVAPGQTARITCGGNNLGSKSVHWYQQKPGQAPVLVVYDDSDRPSWIPERFSGSNSGNTATLTISRGEAGDEADYYCQVWDSSSDHVVFGGGTKLTVL
notes: also called AMG 157; MEDI9929
B2: binding in experiment [3] was characterised by a dissociation constant (Kd) of 0.00816 nM.

B3: H1A10+L3E8-M1 (antibody, human IgG4, V domains shown)
VH: QVQLVQSGAEVKKPGASVKVSCKASGYAFSNYWMNWVRQAPGQGLEWMGQIFPGDSDTDYDQKFQGRVTMTRDTSTSTVYMELSSLRSEDTAVYYCARAGYYRGYYAMDYWGQGTTVTVSS
VL: EIVMTQSPATLSVSPGERATLSCSVSSSISSSNLHWYQQKPGQAPRPWIYGTSNLASGIPARFSGSGSGTEFTLTISSLQSEDFAVYYCQQWSSYPLTFGQGTKLEIK
notes: also called L3E8人源化突变体; 人源化抗TSLP单克隆抗体
B3: the values for the binding result in experiment [4], in experiment [5] and in experiment [6] were “binds”, “no binding” and “binds”, respectively. The affinity in experiment [3], expressed as Kd, was 2.66 nM.

B4: H1A10+L3E8-M1-IgG1m3 (antibody, V domains shown)
VH: B3 VH
VL: B3 VL
notes: IgG1m3 version; also called L3E8人源化突变体(IgG1m3版本)
Take B4: the binding result in experiment [7] is “binds”.

B5: H1A10+L3E8-M2-IgG1m3 (antibody, V domains shown)
VH: B3 VH
VL: B3 VL with R46K
notes: as for B4
For B5, in experiment [7], the binding result is listed as “binds”.

B6: H1A10+L3E8-M4-IgG1m3 (antibody, V domains shown)
VH: B3 VH
VL: B3 VL with L79M, Q80E, S81A
notes: as for B4
For the molecule B6, the binding result in experiment [7] is “binds”.

B7: H1A10+L3E8-M4 (antibody, IgG4, V domains shown)
VH: B3 VH
VL: B3 VL with L79M, Q80E, S81A
notes: also called L3E8人源化突变体
Regarding B7, the binding result in experiment [4] is recorded as “binds”; in experiment [5], “no binding”; in experiment [6] it was “binds”. Binding in experiment [3] was characterised by a dissociation constant (Kd) of 2.63 nM.

B8: H1A10+L3E8-M2 (antibody, IgG4, V domains shown)
VH: B3 VH
VL: B3 VL with R46K
notes: also called L3E8人源化突变体
With B8, the binding result in experiment [4] is “binds”; in experiment [5], “no binding”; in experiment [6] it was “binds”. The Kd in experiment [3] came to 2.59 nM.

B9: H1A10+L3E8 (antibody, V domains shown)
VH: B3 VH
VL: B3 VL with L21I, S22T, R46K, T73S, L79V, Q80E, S81A, F84A
With B9, the binding result in experiment [4] was “binds”; in experiment [5] it was “no binding”; in experiment [6], “binds”.

B10: H1A10+L3E8-M3-IgG1m3 (antibody, V domains shown)
VH: B3 VH
VL: B3 VL with L21I, S22T
notes: as for B4
Take B10: the binding result in experiment [7] is on record as “binds”.

B11: H1A10+L3E8-M3 (antibody, IgG4, V domains shown)
VH: B3 VH
VL: B3 VL with L21I, S22T
notes: also called L3E8人源化突变体
As to B11, the binding result is “binds” in experiment [4], “no binding” in experiment [5] and “binds” in experiment [6]. In addition, binding in experiment [3] was characterised by a dissociation constant (Kd) of 2.37 nM.

These data come from patent CN111171150A (BEIJING ZHIREN MEIBO BIOTECHNOLOGY CO LTD, dated 2020).
